Data as given in the nanobody polyreactivity screen of Harvey et al. (2022).

Experiment: yeast display, Sf9 membrane polyspecificity reagent, FACS + sequencing; frameworks hold sequencing errors
How it was run: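 Synthetic nanobody libraries on Saccharomyces cerevisiae BJ5465 were galactose-induced for 36–48 hours, stained 1 hour at 4 °C with 10% biotinylated, detergent-solubilized Sf9 membrane reagent and enriched on streptavidin microbeads. FACS then separated cells into low and high (top ~1%) gates by anti-HA (expression) and streptavidin (reagent binding) fluorescence. Genes were colony-PCR amplified, MiSeq 2 × 250 sequenced and CDR-length filtered. A clone's polyreactivity label is that of its gate of origin.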

Sequence	polyreactivity (PSR sort gate)
QVQLVESGGGLVQAGGSLRLSCAASGFIFKGNAMGWYRQAPGKERELVAAISYSGGSTYYADSVKGRFTISRDNAKNTVYLQMNSLKPEDTAVYYCAALRWYHYGYWGQGTQVNVSS	high polyreactivity
QVQLVESGGGLVQAGGSLRLSCAASGRIFYRYAMGWYRQAPGKERELVAAISSGSSTNYADSVKGRFTISRDNAKNTVYLQMNSLKPEDTAVYYCNAERYGKSWRYCYWGQGTQVTVSS	high polyreactivity
QVQLVESGGGLVQAGGSLRLSCAASGRTFVTYAMGWYRQAPGQERELVAAISASGGSTYYADSVKGRFTISRDNAKNTVYLQMNSLKPEDTAVYYCAKTYFLATPYGYWGQGTQVTVSS	low polyreactivity
QVQLEESGGGLVQAGGSLRLSCAASGLIFPVYAMGWYRQAPGKERELVASISWNGGSTYYADSVKGRFTISRDNAKNTVYLQMNSLKPEDTAVYYCNKYPVSLWYYSKDYTYDYWGQGTQVTVSS	low polyreactivity
QVQLVEAGGGLVQAGGSLRLSCAASGFIFSSNAMGWYRQAPGKERELVAGITASGVSTYYADSVKGRFTISRDNAKNTVYLQMNSLKPEDTAVYDCAALGLYYYFYSQYIAWDDYWGQGTQVTVSS	low polyreactivity
QVQLVESGGGLVQAGGSLRLICAASGRTFQYYAMGWYRQAPGKERELVAAITSGGSTYYADSVKGRFTISRDNAKNTVYLQMNSLKPEDTAVYYCAATFYYSGHDDYWGQGTQVTVSS	low polyreactivity
QVQLVESGGGLVQAGGSLRLSCAASGLTFFPNVMGWYRQAPGKERELVAAISRSGDRTFYADSVKGRFTISRDNAKNTVYLQMNSLKPEDTAVYYCAADSGSSRSRRGYEYWGQGTQVTVSS	high polyreactivity
QVQLVESGGGLVQAGGSLRLSCAASGNTFVDYAMVWYRQAPGKERELVAAIDQTGGSTYYADSVKGRFTISRDNAKNTVYLQMNSLKPEDTAVYYCARDLAYRKDLYPRWYDYWGQGTQVTVSS	low polyreactivity
QVQLVESGGGLVHAGGSLSLSCAASGSIFPTNVMGWYRQAPGKERELVAAISANDGSTYYADSVKGRFTISRDNAKNTVYLQMNSLKPEDTAVYYCNQEGYTYRFTWYDYWGQGTQVTVSS	low polyreactivity
QVQLVESGGGLVQAGGSLRLTWEAYGFTFKYYPMGWYRQAPGKEWELVADITRSGGSTYYADSVKGRFTISRDNAKITVYLEMYILKPEDTAVYYCAVDPVRYQYSYDYWCQGTQVTVSS	high polyreactivity
QVQLVESGGGLVQAGGSLRLSCAASGSIFRPYAMGWYRPAPGKERELVAAITSGGRTNYADSVKGRFTISRDNAKNTVYLQMNSLKPEDTAVYYCAKTGSYAKIRPNNDYWGQGTQVTVSS	low polyreactivity
QVQLVESAGGLVQAGGSLRLSCYASGRIFPAYAMGWYRQAPGKERELVASIRRGGITYADSVKGRFTISRDNAKNTVYLQMNSLKPEDTAVYYCNADSRGWGYHMDYWGQGTQVTVSS	low polyreactivity
QVQLVESGGGLVQAGGSLRLSCAASGRIFEYYAMGWYRQAPGKERELVAVISSGSSTNYADSVKGRFTISRDNAKNTVYLQMNSLKPEDTAVYYCAAEYSVYYRFSDGDYWGQGTQVTVSS	low polyreactivity
QVQLVESGGGLVQAGGSLRLSCAASGFIFADNTMGWNRQAPGKERELVAAISRRGGSTYYADSVKGRFTISRDNAKNTVYLQMNSLKPEDTAVYYCAARPFVKHDYWGQGTQVTVSS	high polyreactivity
QVQLVESGGGLVQAGGSLRLSCAASGFTFSVYAMGWYRQAPGKERELVAAINWSGSTTYYADSVKGRFTISRDNAKNTVYLQMNSLKPEDTAVYYCAVEGRTTWPFRTYGYWGQGTQVTVSS	high polyreactivity
QVQLVESGGGLVQARGSLRLSSAASGSTFSYYAMGGYRQEHGTETQLVATISKRGGSTYYADSVKGRFTISRDNAKNTVYLQMNSLKPEDTAVYYCAAEFLVRYGYDYWGQGTQVTVSS	high polyreactivity
QVQLVESRGGLVQAGGSHRLSCAASGSIIYGNTMGWYRQAPGKERELVAAIRRGGSTNYADSVKGRFTISRDNAKNTVYLQMNSMKPEDTAVYYCAKGHPSDFGYWGQGTQVNVSS	high polyreactivity
QVQLVESGGGLVQAGGSLRLSCAPSGRTIGRNAMGWSRQAPGKERELVAAISASGSRTYYAESVKGRFTISRDNAMNTVYLQMNSLKPVDTAVYYCNAVYRTLYYRFYYWGQGTQVTVSS	high polyreactivity
QVQLVESGGGLVQAGGSLRLSCAASGRTFRFYAMGWYRQAPGKERELVAAIRWSGGSTYYADSVKGRFTISRDNAKNTVYLQMNSLKPEETAVYYCAAARWSQYRTWMNYWGQGTQVTVSS	high polyreactivity
QVQLVESGGGLDQAGGSLRLSCAASGYTYLRNAMGWSRQAPGKERELVAAISYSGGGTYYADSVKGRFTISRDNAKNTVYLQMHSLKPEDTAVYYCAADRGGLRWFWQVLYDYWGQGTQVTVSS	low polyreactivity
QVQLVESGGGFVQAGGSLRLSCAASGSIFYYNAMGWYRQAPGKEREFVAAITTSAGSTYYADSVKGRFTISRDNEKNTVYLQMYRLKPEDTAVYYCAASPGRRRRPYASLFRYDYWGQGTQVTVSS	high polyreactivity
QVQLGESGGGLVQAGGSLRLSCAASGRIFVKYAMGWYRQAPGKERELVAAISKSGGSTYYADSVKGRFTISRDNAKKTVYLQMNSLKPEDTAVYYCATRSREQYSVSYRLDFWGQGTQVTVSS	low polyreactivity

Sequence	polyreactivity (PSR sort gate)
QVQLVESGGGLVQAGGSLRLSCAASGSTFRYYAMGWYRQAPGKERELVAAITWGGGNTYYADSVKGRFTISRDNAKNTVYLQMNSLKPEDTAVYYCNKVQSHWLDSWGQGTQVTVSS	low polyreactivity
QVQLVESGGGLVQAGGSLRLSCAASGSIFRDYAMGWYRQAPGKERELVAAITWSGGRTYYADSVKGRFTISRDNAKNTVYLQMNSLKPEDTAVYYCAARSTRQYEYDYWGQGTQVTVSS	low polyreactivity
QVQLVESGGGLVQAGGSLRLSCAASGFTFGGYAMGWYRQAPGKERELVAAISQSGGRTYYADSVKGRFTISRDHAMNTVDLQMISLKPEDTAVYYCAKPSTTYYQRGDYWGQGTQVTVSS	high polyreactivity
QVQLVESGGGLVQAGGSLRLSCAASGSILVTYAMGWYRQAPGKERELVAAISRGGRTYYADSVKGRFTISRDNAKNTVYLQMNSLKPEDTAVYYCNADRVTFSWPVNYYWVDYWGQGTQVTVSS	high polyreactivity
QVHLVESGGGLVQAGGSLRLSCAASGRIFNSNAMGWYIQEPGKERELAAAISKRGGSTFYADSVKGRFTISRDNGKNTVFLQMKSLKPEYSAVYYCNARRLSTGFDRYDYWGQGTQVTGSS	high polyreactivity
QVQLVESGGGLVQAGGSLRLSCAASGFIFYDYMGWYRQAPGKERELVAVISYSGSSTYYADSVKGRFTISRDNAKNTVYLQMNSLKPEDTAVYYCAARNVNGWDYDYWGQGTQVTVSS	low polyreactivity
QVQLVESGGGLVQAGGSLRLSCAASGSTFYRYAMGWYRQAPGKERELVARIRLSGTSTYYADSVKGRFTISRDNAKNTVYLQMNSLKPEDTAVYYCAAELYSRNWRSQYDYWGQGTQVTVSS	high polyreactivity
QVQLVESGGGLVQAGGSLRLSCAASGSTISGYAMGWYRQAPGKERELVAAISSGGSTYYADSVKGRFTISRDNAKNTVYLQLNSLKPEDTAVFYCNVARSRYRYRYDYWGQGTQVTVSS	high polyreactivity
QVQLVESGGGLVQAGGSLRLSCAASGSTFSEYAMGWYRQAPGKERELVASITWSDDSTYYADSVKGRFTISRDNAKITVYLQMNSLKPEDSAVYYCAVRTGRRWWKFDYWGQGTQVTVSS	low polyreactivity
QVQLVESGGGLVQAGGSLRLSCAASGRIFDGYAMGWYRQAPGKERELVATITRGGSTNYADSVKRPFTISRDNAKNTVYIQMNSLKPEDTAVYYCNADIRRHGGYAHEYWGEGTQVTVSS	low polyreactivity
QVQLVESGGGLVQAGGSLRLSCAASGSIFLWNAMGGYRQAPGKERDLVAAISSSGGSTYYADSVKGRFTISRDNAKNTVYLQMNSLKPEDTAVYYCAAVSRSYYNSYNYWGQGTQVTVSS	high polyreactivity
QVQLVESGRGLVQAGGSLRLSCAASGSIFGFYAMGWYREAPGKESELVAAINSGSTNYADSLKGRFTISRDNAKNTVYLQMNSLKPEDTAVYYCNKDKGVQSYVSSDARYNYWGQGTQVTVSS	low polyreactivity
QVQLVESGGGLVQAGGSLRLSCAASGSIFYYYVMGWYRQAPGKEREFGAAISWGGDSTYYADSVKGRFTISRDNAMYTVYLQMNSLKPEDTAVYYCNADYPWSVVCYAYWGQGTQVTVSS	low polyreactivity
QVQLVESGGGLVQAGGSLRLSCAASGSIFGGYVMGWSRQAPGKEWELVAAITSGGSTYYADSVKGRFTISRDNAKNTVYLQMNSLKPEDTAVYYCNADPYTYSYGMYYWGQGTQVTVSS	low polyreactivity
QVQLVESGGGLVQAGGSLRLSCAASGRIFQYYAMGWYRQAPGKERELVAAITSGGRTTYADSVKGRFTISRDNAKNTVYLQMNSLKPEVTAVYYCNAKTWYSYNYWGQGTQVTVSS	high polyreactivity
QVQLVESGGGLVQAGGSLRLSCASSGRTFRYYAMGWYRQAPGKERELVAAIRSGGITNYADSVKGRFTISRDNAKNTVYLQMNSLKPEDTAVYYCAVETPSTWFSGWGYDYDYWGQGTQVTVSS	high polyreactivity
QVQLVESGGGLVQAGGSLRLSCAASGRIFWYNAMGWYRQAPGKERGLVAVISTRGGRTYYADSVKGRFTISRDNAKNTVYLQMNSLKPEDTAVYYCAAEFLNKAVGGVTSIYDSWGQGTQVTVSS	low polyreactivity
QVQLVESVGGLVQAGGSLRLSSAASGRIFVFNAMGWYRQAPGKERELVAAISRRGGSTYYADSVKGRFTISRDNAKNTVYLQMNSLNPEVTAVYYCAAVYPDYSSARYDYWGQGTQVTVSS	high polyreactivity
QDQLVESGGGLVQAGGSLRLSCAASGFIFWFYAMGWYRQAPGKERELVASISARGARTYYADSVKGRFTISRDNAKNTVYLQMNSLKPEDTAVYYCATTSPVWWRADDYWGQGTQVTVSS	high polyreactivity
QVQLVESGGGIVQAGGSLRLSCAASGIIFGYYAMGWYRQAPGKEREMVAAINQDGSSTYYADSVKGRFTISRDYAKNTVYLQMNSLKPEDTAVFYCNARGVPRQDARMGYWGQGTQVTVSS	low polyreactivity
QVQLVESGGGLVQAGGSLRLSCAASGRTFRRSAMGWYRQAPGKEREFVAAISVSGDSTYADSVKGRFTISRDNAKNTVYLQMNSLKPEDTAVYYCAAVYWYCGWKVDYWGQGTQVTLSS	low polyreactivity
